# Read-outs that look alike come from different tables or passages of the source. Square brackets hold non-standard residues; d marks the D form. Primed or numbered codes have the meaning given here. Ends that are not written are not given here. * marks the point of attachment. NH(3,5-(CF3)2-benzyl) = FC(F)(F)c1cc(CN*)cc(C(F)(F)F)c1; OBzl(3,5-(CF3)2) = FC(F)(F)c1cc(CO*)cc(C(F)(F)F)c1; Glc″ = glucosyl on the serine side-chain oxygen; Nle = CCCC[C@H](N)C(=O)O; NHBn = c1ccc(CN*)cc1
# B1: DmtDAlaGlyPheNleProLeuTrpNMeBn(CF3)2 (peptide)
# peptide: YAGFXPLW
# modifications: Dmt at 1 (written Y); D-Ala at 2; Nle at 5 (written X); C-terminal NMe-3,5-Bzl(CF3)2 amide
# notes: also called TY052
# How the values were obtained:
# rat µ opioid receptor [1] = molecular target: T1, rat µ opioid receptor (rat, UniProt P33535 1-398); assay: competition vs [3H]DAMGO, rMOR cell membranes
# T1 construct: whole, on cells; membrane preparations of the transfected cells were used; also called rMOR; MOR
# T1 sequence (P33535 whole entry): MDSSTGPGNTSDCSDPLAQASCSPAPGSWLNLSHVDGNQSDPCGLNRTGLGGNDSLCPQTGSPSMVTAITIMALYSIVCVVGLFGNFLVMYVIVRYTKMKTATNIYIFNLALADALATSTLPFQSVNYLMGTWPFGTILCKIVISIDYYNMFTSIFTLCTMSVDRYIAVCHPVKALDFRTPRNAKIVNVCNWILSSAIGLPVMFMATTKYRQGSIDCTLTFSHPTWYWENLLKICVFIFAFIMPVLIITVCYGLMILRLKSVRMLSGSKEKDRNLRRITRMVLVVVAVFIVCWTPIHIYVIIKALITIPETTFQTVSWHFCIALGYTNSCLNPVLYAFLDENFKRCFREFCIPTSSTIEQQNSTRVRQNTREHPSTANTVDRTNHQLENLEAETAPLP
# human δ opioid receptor [2] = molecular target: T2, human δ opioid receptor (human, UniProt P41143 1-372); assay: cell-based or functional assay
# T2 sequence (P41143 whole entry, stated change not applied): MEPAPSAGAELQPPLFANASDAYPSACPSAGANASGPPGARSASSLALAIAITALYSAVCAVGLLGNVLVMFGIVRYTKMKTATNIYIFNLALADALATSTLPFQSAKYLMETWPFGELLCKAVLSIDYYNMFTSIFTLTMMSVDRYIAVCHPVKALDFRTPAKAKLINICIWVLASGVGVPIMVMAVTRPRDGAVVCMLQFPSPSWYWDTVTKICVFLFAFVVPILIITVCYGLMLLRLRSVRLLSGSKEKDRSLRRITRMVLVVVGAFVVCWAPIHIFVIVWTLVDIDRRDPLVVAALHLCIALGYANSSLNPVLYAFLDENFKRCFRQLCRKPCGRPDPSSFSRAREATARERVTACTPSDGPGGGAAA
# guinea pig NK1 receptor [3] = molecular target: T3, guinea pig NK1 receptor (guinea pig, UniProt P30547 1-407); assay: cell-based or functional assay
# T3 sequence (P30547 whole entry): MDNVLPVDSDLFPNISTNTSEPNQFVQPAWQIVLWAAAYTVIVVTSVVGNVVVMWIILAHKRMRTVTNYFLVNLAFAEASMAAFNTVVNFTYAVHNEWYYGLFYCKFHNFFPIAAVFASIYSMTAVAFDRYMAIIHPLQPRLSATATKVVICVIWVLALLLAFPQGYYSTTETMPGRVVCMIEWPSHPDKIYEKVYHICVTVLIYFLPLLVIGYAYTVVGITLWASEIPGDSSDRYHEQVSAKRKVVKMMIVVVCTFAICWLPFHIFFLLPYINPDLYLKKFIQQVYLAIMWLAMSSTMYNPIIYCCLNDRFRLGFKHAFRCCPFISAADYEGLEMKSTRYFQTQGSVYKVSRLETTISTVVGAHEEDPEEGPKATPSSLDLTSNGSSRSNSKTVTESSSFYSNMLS
# rat µ opioid receptor [4] = molecular target: T1, rat µ opioid receptor; assay: cell-based or functional assay
# [5] = molecular target: T4, µ opioid receptor of the guinea pig isolated ileum (guinea pig, UniProt P97266 1-98); assay: cell-based or functional assay
# T4 sequence (P97266 whole entry): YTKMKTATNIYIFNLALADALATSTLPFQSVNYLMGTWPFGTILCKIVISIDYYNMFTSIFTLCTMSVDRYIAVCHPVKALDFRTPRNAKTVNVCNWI
# human NK1 receptor [6] = molecular target: T5, human NK1 receptor (human, UniProt P25103 1-407); assay: competition vs [3H]Substance P, hNK1 CHO cell membranes
# T5 construct: whole, on cells; membrane preparations of the transfected cells were used; also called hNK1; human neurokinin-1 receptor
# T5 sequence (P25103 whole entry): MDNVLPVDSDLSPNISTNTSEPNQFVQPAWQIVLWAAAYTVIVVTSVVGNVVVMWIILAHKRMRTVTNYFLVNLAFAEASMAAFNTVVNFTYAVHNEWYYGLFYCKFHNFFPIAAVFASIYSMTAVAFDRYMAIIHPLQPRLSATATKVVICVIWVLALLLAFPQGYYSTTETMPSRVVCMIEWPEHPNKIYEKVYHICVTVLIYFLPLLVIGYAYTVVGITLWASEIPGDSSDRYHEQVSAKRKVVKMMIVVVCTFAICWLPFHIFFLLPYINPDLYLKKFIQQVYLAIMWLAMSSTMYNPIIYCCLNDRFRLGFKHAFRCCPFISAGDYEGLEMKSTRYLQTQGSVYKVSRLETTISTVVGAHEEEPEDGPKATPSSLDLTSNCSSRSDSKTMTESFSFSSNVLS
# [7] = molecular target: T6, µ opioid receptor of the guinea pig isolated ileum (guinea pig, UniProt P97266 1-98); assay: cell-based or functional assay; remark: listed apart in the source
# T6 sequence (P97266 whole entry): as the sequence (P97266 whole entry) above
# human δ opioid receptor [8] = molecular target: T7, human δ opioid receptor (human, UniProt P41143 1-372); assay: competition vs [3H]DPDPE, membranes of hDOR-transfected HN9.10 cells
# T7 construct: whole, on cells; Assayed as membrane preparations of transfected cells; also called hDOR; DOR
# T7 sequence (P41143 whole entry, stated change not applied): as the sequence (P41143 whole entry, stated change not applied) above
# rat NK1 receptor [9] = molecular target: T8, rat NK1 receptor (rat, UniProt P14600 1-407); assay: competition vs [3H]substance P, membranes of rNK1-transfected CHO cells
# T8 construct: whole, on cells; Assayed as membrane preparations of transfected CHO cells; also called rNK1; rNK-1
# T8 sequence (P14600 whole entry): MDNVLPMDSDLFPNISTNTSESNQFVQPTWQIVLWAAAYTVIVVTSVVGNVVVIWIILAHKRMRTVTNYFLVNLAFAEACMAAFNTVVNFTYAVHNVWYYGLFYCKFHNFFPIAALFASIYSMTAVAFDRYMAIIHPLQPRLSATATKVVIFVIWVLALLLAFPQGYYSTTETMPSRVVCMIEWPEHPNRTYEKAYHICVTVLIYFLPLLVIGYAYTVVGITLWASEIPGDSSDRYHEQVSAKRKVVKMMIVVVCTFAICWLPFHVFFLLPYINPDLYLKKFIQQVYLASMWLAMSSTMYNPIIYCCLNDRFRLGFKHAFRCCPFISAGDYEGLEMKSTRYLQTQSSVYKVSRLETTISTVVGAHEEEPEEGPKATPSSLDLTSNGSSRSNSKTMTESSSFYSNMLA
# human δ opioid receptor [10] = molecular target: T7, human δ opioid receptor; assay: cell-based or functional assay; remark: listed apart in the source
# rat µ opioid receptor [11] = molecular target: T9, rat µ opioid receptor (rat, UniProt P33535 1-398); assay: cell-based or functional assay; remark: listed apart in the source
# T9 sequence (P33535 whole entry): as the sequence (P33535 whole entry) above
# [12] = molecular target: T6, µ opioid receptor of the guinea pig …; assay: cell-based or functional assay; remark: listed apart in the source
# human δ opioid receptor [13] = molecular target: T2, human δ opioid receptor; assay: competition vs [3H]DPDPE, hDOR cell membranes
# guinea pig NK1 receptor [14] = molecular target: T3, guinea pig NK1 receptor; assay: cell-based or functional assay; remark: listed apart in the source
# [15] = molecular target: T4, µ opioid receptor of the guinea pig …; assay: cell-based or functional assay; remark: listed apart in the source
# guinea pig NK1 receptor [16] = molecular target: T3, guinea pig NK1 receptor; assay: cell-based or functional assay; remark: listed apart in the source
# [17] = molecular target: T4, µ opioid receptor of the guinea pig …; assay: cell-based or functional assay; remark: listed apart in the source
# guinea pig NK1 receptor [18] = molecular target: T3, guinea pig NK1 receptor; assay: cell-based or functional assay; remark: listed apart in the source
# [19] = molecular target: T4, µ opioid receptor of the guinea pig …; assay: cell-based or functional assay; remark: listed apart in the source
# rat NK1 receptor [20] = molecular target: T10, rat NK1 receptor (rat, UniProt P14600 1-407); assay: competition vs [3H]Substance P, rNK1 CHO cell membranes
# T10 construct: whole, on cells; membrane preparations of the transfected cells were used; also called rNK1; rNK-1
# T10 sequence (P14600 whole entry): as the sequence (P14600 whole entry) above
# human δ opioid receptor [21] = molecular target: T2, human δ opioid receptor; assay: cell-based or functional assay; remark: listed apart in the source
# rat µ opioid receptor [22] = molecular target: T1, rat µ opioid receptor; assay: cell-based or functional assay; remark: listed apart in the source
# rat NK1 receptor [23] = molecular target: T10, rat NK1 receptor; assay: competition vs [3H]Substance P, rNK1 CHO cell membranes; remark: listed apart in the source
# human δ opioid receptor [24] = molecular target: T2, human δ opioid receptor; assay: competition vs [3H]DPDPE, hDOR cell membranes; remark: listed apart in the source
# human δ opioid receptor [25] = molecular target: T2, human δ opioid receptor; assay: competition vs [3H]DPDPE, hDOR cell membranes; remark: listed apart in the source
# human NK1 receptor [26] = molecular target: T5, human NK1 receptor; assay: competition vs [3H]Substance P, hNK1 CHO cell membranes; remark: listed apart in the source
# human δ opioid receptor [27] = molecular target: T7, human δ opioid receptor; assay: competition vs [3H]DPDPE, membranes of hDOR-transfected HN9.10 cells; remark: listed apart in the source
# rat NK1 receptor [28] = molecular target: T8, rat NK1 receptor; assay: competition vs [3H]substance P, membranes of rNK1-transfected CHO cells; remark: listed apart in the source
# guinea pig NK1 receptor [29] = molecular target: guinea pig NK1 receptor (guinea pig, UniProt P30547 1-407); assay: cell-based or functional assay; remark: listed apart in the source
# Target sequence in this assay (P30547 whole entry): as the sequence (P30547 whole entry) above
# [30] = molecular target: µ opioid receptor of the guinea pig isolated ileum (guinea pig); assay: cell-based or functional assay
# human δ opioid receptor [31] = molecular target: T7, human δ opioid receptor; assay: cell-based or functional assay; remark: listed apart in the source
# rat µ opioid receptor [32] = molecular target: T9, rat µ opioid receptor; assay: cell-based or functional assay; remark: listed apart in the source
binder,measurement,setting,value
"Y[dA]GF[Nle]S(Glc″)LW-{NH(3,5-(CF3)2-benzyl)} (also called TY044) [TyrDAlaGlyPheNleSer(OGlu)LeuTrpNHBn(CF3)2]",Ki,rat µ opioid receptor [1],3370 nM
same,GTP binding Emax,human δ opioid receptor [2],162%
same,GPI/LMMP SP antagonist Ke,guinea pig NK1 receptor [3],18.4 nM
same,GTP binding EC50,rat µ opioid receptor [4],380 nM
same,GTP binding Emax,rat µ opioid receptor [4],85%
same,GPI/LMMP IC50,[5],249 nM
same,Ki,human NK1 receptor [6],1.3 nM
"Y[dA]GFW-{OBzl(3,5-(CF3)2)} [Tyr-D-Ala-Gly-Phe-Trp-O-3′,5′(CF3)2-Bzl (NP36)]",GPI µ-agonist IC50,[7],523 nM
"H-Y[dA]GFMPLW-NHBn (also: TFA salt, TFA salt; also called TY025) [H-Tyr-D-Ala-Gly-Phe-Met-Pro-Leu-Trp-NH-Bzl]",Ki,human δ opioid receptor [8],0.44 nM
same,LogIC50,human δ opioid receptor [8],-9.1
same,Ki,rat NK1 receptor [9],700 nM
same,LogIC50,rat NK1 receptor [9],-5.6
same,[35S]GTPγS binding EC50,human δ opioid receptor [10],2.6 nM
same,[35S]GTPγS binding LogEC50,human δ opioid receptor [10],-8.6
same,[35S]GTPγS binding Emax,rat µ opioid receptor [11],47%
Y[dA]GFPW-{O‑Bzl(CF3)2} [Tyr-DAla-Gly-Phe-Pro-Trp-O-Bzl(CF3)2 (NP39)],GPI/LMMP µ-agonist IC50,[12],259 nM
Y[dA]GFMPLW-NHBn (also called TY025) [TyrDAlaGlyPheMetProLeuTrpNHBn],Ki,human δ opioid receptor [13],0.44 nM
same,GPI Substance P antagonist Ke,guinea pig NK1 receptor [14],9.9 nM
same,GPI (µ) IC50,[15],61 nM
same,GPI/LMMP Substance P antagonist Ke,guinea pig NK1 receptor [16],9.9 nM
same,GPI/LMMP IC50,[17],61.1 nM
"Y[dA]GFMPLW-{OBzl(3,5-(CF3)2)} (also called TY005) [TyrDAlaGlyPheMetProLeuTrpOBn(CF3)2]",GPI/LMMP SP antagonist Ke,guinea pig NK1 receptor [18],24.7 nM
same,GPI/LMMP IC50,[19],359 nM
same,Ki,human δ opioid receptor [13],2.8 nM
same,IC50,rat NK1 receptor [20],6.4 nM
same,GTP binding EC50,human δ opioid receptor [21],2.9 nM
same,GTP binding Emax,human δ opioid receptor [21],47.6%
same,GTP binding Emax,rat µ opioid receptor [22],45.6%
same,Ki,rat NK1 receptor [23],0.2 nM
same,GPI Substance P antagonist Ke,guinea pig NK1 receptor [14],25 nM
same,GPI (µ) IC50,[15],360 nM
same,Ki,human δ opioid receptor [24],2.8 nM
same,GPI/LMMP Substance P antagonist Ke,guinea pig NK1 receptor [16],24.7 nM
same,GPI/LMMP IC50,[17],359 nM
B1,Ki,human δ opioid receptor [25],0.46 nM
same,Ki,human NK1 receptor [26],0.21 nM
"H-Y[dA]GFMPLW-{OBzl(3,5-(CF3)2)} (also: TFA salt, TFA salt; also called TY005; TY5) [H-Tyr-D-Ala-Gly-Phe-Met-Pro-Leu-Trp-O-3,5-Bzl(CF3)2]",Ki,human δ opioid receptor [27],2.8 nM
same,LogIC50,human δ opioid receptor [27],-8.22
same,IC50,rat NK1 receptor [28],6.4 nM
same,LogIC50,rat NK1 receptor [28],-8.22
same,Ki,human δ opioid receptor [8],2.8 nM
same,Ki,rat NK1 receptor [9],0.29 nM
same,LogIC50,rat NK1 receptor [9],-9
same,Substance P GPI antagonist Ke,guinea pig NK1 receptor [29],24.7 nM
same,GPI (µ) opioid agonist IC50,[30],359 nM
same,[35S]GTPγS binding EC50,human δ opioid receptor [10],2.9 nM
same,[35S]GTPγS binding Emax,human δ opioid receptor [10],48%
same,[35S]GTPγS binding LogEC50,human δ opioid receptor [10],-8.5
same,[35S]GTPγS binding Emax,rat µ opioid receptor [11],46%
same,[35S]GTP-γ-S binding EC50,human δ opioid receptor [31],2.9 nM
same,[35S]GTP-γ-S binding Emax,human δ opioid receptor [31],51%
same,[35S]GTP-γ-S binding LogEC50,human δ opioid receptor [31],-8.54
same,[35S]GTP-γ-S binding Emax,rat µ opioid receptor [32],45%
